Test results taken from doi:10.1101/2022.04.13.488184.

Biological target: Sulfolobus acidocaldarius SRP54 (Sulfolobus acidocaldarius) (UniProt O07853)
Assay: FRET or BRET

UniProt O07853, sequence (O07853 whole entry): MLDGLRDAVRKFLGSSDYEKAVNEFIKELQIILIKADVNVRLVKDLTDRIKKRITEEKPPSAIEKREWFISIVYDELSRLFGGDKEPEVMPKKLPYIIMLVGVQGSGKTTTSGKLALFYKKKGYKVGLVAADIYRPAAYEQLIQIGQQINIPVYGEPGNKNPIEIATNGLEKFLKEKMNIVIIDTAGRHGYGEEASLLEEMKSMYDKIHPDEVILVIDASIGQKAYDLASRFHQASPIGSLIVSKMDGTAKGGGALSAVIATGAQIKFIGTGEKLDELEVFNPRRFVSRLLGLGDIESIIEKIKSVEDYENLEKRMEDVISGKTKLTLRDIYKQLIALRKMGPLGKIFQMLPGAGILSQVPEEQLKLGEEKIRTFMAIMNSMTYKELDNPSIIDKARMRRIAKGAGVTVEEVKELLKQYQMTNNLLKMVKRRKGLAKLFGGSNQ

| Substance | Kd [nM] |
| --- | --- |
| FtsYΔαN1 (Tyr87-Ser369) (from UniProt P27414 87-369) (domain or fragment) | 75 |
| FtsYΔαN2 (Ser109-Ser369) (from UniProt P27414 109-369) (domain or fragment) | 114 |
| FtsYΔαN3 (Gly129-Ser369) (from UniProt P27414 129-369) (domain or fragment) | 272 |
